Data published in PMC5961234.

B1: T4WT12W (structured_DNA)
DNA: GGTTGGTGTGGTTGG
modifications: T4 and T12 = W, 5-(indolyl-3-acetyl-3-amino-1-propenyl)-2'-deoxyuridine (written T)
B2: T4W (structured_DNA)
DNA: GGTTGGTGTGGTTGG
modifications: T4 = W, 5-(indolyl-3-acetyl-3-amino-1-propenyl)-2'-deoxyuridine (written T)
B3: TBA (structured_DNA)
DNA: GGTTGGTGTGGTTGG
modifications: none
B4: T12W (structured_DNA)
DNA: GGTTGGTGTGGTTGG
modifications: T12 = W, 5-(indolyl-3-acetyl-3-amino-1-propenyl)-2'-deoxyuridine (written T)
B5: T7W (structured_DNA)
DNA: GGTTGGTGTGGTTGG
modifications: T7 = W, 5-(indolyl-3-acetyl-3-amino-1-propenyl)-2'-deoxyuridine (written T)
B6: T4K (structured_DNA)
DNA: GGTTGGTGTGGTTGG
modifications: T4 = K, 5-(methyl-3-acetyl-3-amino-1-propenyl)-2'-deoxyuridine (written T)
B7: T3W (structured_DNA)
DNA: GGTTGGTGTGGTTGG
modifications: T3 = W, 5-(indolyl-3-acetyl-3-amino-1-propenyl)-2'-deoxyuridine (written T)

Target: human alpha-thrombin (Homo sapiens, UniProt P00734;P00734 328-363;364-622)
Assay: BLI

Binder | Kd [nM]
B1 | 0.31
B2 | 1
B3 | 2.8
B4 | 1.3
B5 | 1.7
B6 | 0.39
B7 | 3.9
